Measured values taken from patent US20060135432A1 (NEUROGENEX, published 2006).
[ ]: non-standard residue; d: D form. dPhe(4-Cl) = N[C@H](Cc1ccc(Cl)cc1)C(=O)O; d2Nal = N[C@H](Cc1ccc2ccccc2c1)C(=O)O; dCit = NC(=O)NCCC[C@@H](N)C(=O)O; d3Pal = N[C@H](Cc1cccnc1)C(=O)O; pGlu = O=C1CC[C@@H](C(=O)O)N1

T1: rat GnRHR (rat, UniProt P30969 1-327)
T1 sequence (looked up): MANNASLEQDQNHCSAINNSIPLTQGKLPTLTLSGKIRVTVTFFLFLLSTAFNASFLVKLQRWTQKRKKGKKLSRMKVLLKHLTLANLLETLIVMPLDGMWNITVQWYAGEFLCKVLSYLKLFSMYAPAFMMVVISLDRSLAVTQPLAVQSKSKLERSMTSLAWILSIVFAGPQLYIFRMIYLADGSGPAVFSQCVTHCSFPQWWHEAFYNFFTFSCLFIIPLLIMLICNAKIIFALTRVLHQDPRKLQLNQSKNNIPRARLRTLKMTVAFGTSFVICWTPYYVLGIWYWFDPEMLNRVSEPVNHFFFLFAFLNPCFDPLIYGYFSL

B1: GnRH-1 (peptide)
peptide: EHWSYGLRPG
modifications: pyroGlu at 1; C-terminal amide (GlyNH2); radiolabelled with I^125 where used as tracer in Example 4
notes: also called mGnRH; mammalian GnRH
B2: [D-Lys^6]GnRH-2 (peptide)
peptide: [pGlu]HWSH[dK]WYPG-NH2
SMILES: NCCCC[C@@H](NC(=O)[C@H](Cc1c[nH]cn1)NC(=O)[C@H](CO)NC(=O)[C@H](Cc1c[nH]c2ccccc12)NC(=O)[C@H](Cc1c[nH]cn1)NC(=O)[C@@H]1CCC(=O)N1)C(=O)N[C@@H](Cc1c[nH]c2ccccc12)C(=O)N[C@@H](Cc1ccc(O)cc1)C(=O)N1CCC[C@H]1C(=O)NCC(N)=O
B3: [D-Ala^6, Tyr^7, Trp^8]GnRH-2 (peptide)
peptide: [pGlu]HWSH[dA]YWPG-NH2
SMILES: C[C@@H](NC(=O)[C@H](Cc1c[nH]cn1)NC(=O)[C@H](CO)NC(=O)[C@H](Cc1c[nH]c2ccccc12)NC(=O)[C@H](Cc1c[nH]cn1)NC(=O)[C@@H]1CCC(=O)N1)C(=O)N[C@@H](Cc1ccc(O)cc1)C(=O)N[C@@H](Cc1c[nH]c2ccccc12)C(=O)N1CCC[C@H]1C(=O)NCC(N)=O
B4: [D-Ala^6, Leu^7]GnRH-2 (peptide)
peptide: [pGlu]HWSH[dA]LYPG-NH2
SMILES: CC(C)C[C@H](NC(=O)[C@@H](C)NC(=O)[C@H](Cc1c[nH]cn1)NC(=O)[C@H](CO)NC(=O)[C@H](Cc1c[nH]c2ccccc12)NC(=O)[C@H](Cc1c[nH]cn1)NC(=O)[C@@H]1CCC(=O)N1)C(=O)N[C@@H](Cc1ccc(O)cc1)C(=O)N1CCC[C@H]1C(=O)NCC(N)=O
B5: GnRH-2 (peptide)
peptide: [pGlu]HWSHGWYPG-NH2
modifications: also: I-125 radiolabelled form used as tracer
notes: Purchased from Sigma Co; also called gonadotropin-releasing hormone-2; cGnRH-II
B6: [D-Trp^6]GnRH-2 (peptide)
peptide: [pGlu]HWSH[dW]WYPG-NH2
SMILES: NC(=O)CNC(=O)[C@@H]1CCCN1C(=O)[C@H](Cc1ccc(O)cc1)NC(=O)[C@H](Cc1c[nH]c2ccccc12)NC(=O)[C@@H](Cc1c[nH]c2ccccc12)NC(=O)[C@H](Cc1c[nH]cn1)NC(=O)[C@H](CO)NC(=O)[C@H](Cc1c[nH]c2ccccc12)NC(=O)[C@H](Cc1c[nH]cn1)NC(=O)[C@@H]1CCC(=O)N1
B7: [D-Ala^6]GnRH-2 (peptide)
peptide: [pGlu]HWSH[dA]WYPG-NH2
SMILES: C[C@@H](NC(=O)[C@H](Cc1c[nH]cn1)NC(=O)[C@H](CO)NC(=O)[C@H](Cc1c[nH]c2ccccc12)NC(=O)[C@H](Cc1c[nH]cn1)NC(=O)[C@@H]1CCC(=O)N1)C(=O)N[C@@H](Cc1c[nH]c2ccccc12)C(=O)N[C@@H](Cc1ccc(O)cc1)C(=O)N1CCC[C@H]1C(=O)NCC(N)=O
notes: Chemically synthesised by AnyGen Co
B8: [Leu^5, D-Ala^6]GnRH-2 (peptide)
peptide: [pGlu]HWSL[dA]WYPG-NH2
SMILES: CC(C)C[C@H](NC(=O)[C@H](CO)NC(=O)[C@H](Cc1c[nH]c2ccccc12)NC(=O)[C@H](Cc1c[nH]cn1)NC(=O)[C@@H]1CCC(=O)N1)C(=O)N[C@H](C)C(=O)N[C@@H](Cc1c[nH]c2ccccc12)C(=O)N[C@@H](Cc1ccc(O)cc1)C(=O)N1CCC[C@H]1C(=O)NCC(N)=O
B9: Trptorelix-2 (peptide)
peptide: Ac-[d2Nal][dPhe(4-Cl)][d3Pal]SH[dCit]WYP[dA]-NH2
SMILES: CC(=O)N[C@H](Cc1ccc2ccccc2c1)C(=O)N[C@H](Cc1ccc(Cl)cc1)C(=O)N[C@H](Cc1cccnc1)C(=O)N[C@@H](CO)C(=O)N[C@@H](Cc1c[nH]cn1)C(=O)N[C@H](CCCNC(N)=O)C(=O)N[C@@H](Cc1c[nH]c2ccccc12)C(=O)N[C@@H](Cc1ccc(O)cc1)C(=O)N1CCC[C@H]1C(=O)N[C@H](C)C(N)=O
B10: [Tyr^5, D-Ala^6, Leu^8]GnRH-2 (peptide)
peptide: [pGlu]HWSY[dA]WLPG-NH2
SMILES: CC(C)C[C@H](NC(=O)[C@H](Cc1c[nH]c2ccccc12)NC(=O)[C@@H](C)NC(=O)[C@H](Cc1ccc(O)cc1)NC(=O)[C@H](CO)NC(=O)[C@H](Cc1c[nH]c2ccccc12)NC(=O)[C@H](Cc1c[nH]cn1)NC(=O)[C@@H]1CCC(=O)N1)C(=O)N1CCC[C@H]1C(=O)NCC(N)=O

What was measured:
bfGnRHR-3 [1] = molecular target: T2, bfGnRHR-3 (bullfrog); assay: displacement of I^125-GnRH-2 from membranes of GH3 cells expressing bfGnRHR-3
T2 construct: whole, on cells; also called bullfrog GnRH receptor 3; bfGnRH receptor
Description: (§1) After 48 hours, the cells were homogenized to obtain cellular membranes, which were then dissolved in binding buffer (40 mM Tris, pH 7.4, 2 mM MgCl₂).

bfGnRHR-1 [2] = molecular target: bfGnRHR-1 (bullfrog); assay: cell-based or functional assay
bfGnRHR-3 [3] = molecular target: T2, bfGnRHR-3; assay: cell-based or functional assay
bfGnRHR-2 [4] = molecular target: bfGnRHR-2 (bullfrog); assay: cell-based or functional assay
bfGnRHR-2 [5] = molecular target: bfGnRHR-2 (bullfrog); assay: cell-based or functional assay; remark: listed apart in the source
bfGnRHR-2 [6] = molecular target: bfGnRHR-2 (bullfrog); assay: cell-based or functional assay; remark: listed apart in the source
Primate GnRH-2 receptor [7] = molecular target: T3, Primate GnRH-2 receptor (Primate (from a CV-1 cell genome)); assay: cell-based or functional assay
rat GnRHR [8] = molecular target: T1, rat GnRHR; assay: cell-based or functional assay
rat GnRHR [9] = molecular target: T1, rat GnRHR; assay: cell-based or functional assay; remark: listed apart in the source
rat GnRHR [10] = molecular target: T1, rat GnRHR; assay: displacement of I^125-GnRH-2 from membranes of GH3 cells expressing rat GnRHR
Description: as §1

bfGnRHR-1 [11] = molecular target: bfGnRHR-1 (bullfrog); assay: cell-based or functional assay; remark: listed apart in the source
Primate GnRH-2 receptor [12] = molecular target: T3, Primate GnRH-2 receptor; assay: cell-based or functional assay; remark: listed apart in the source

Binder	log IC50 (bfGnRHR-3 [1])	Log EC50, inositol phosphate production in GH3 cells expressing the receptor (bfGnRHR-1 [2])	Log EC50, inositol phosphate production in GH3 cells expressing the receptor (bfGnRHR-3 [3])	Log EC50, inositol phosphate production in GH3 cells expressing the receptor (bfGnRHR-2 [4])	Emax (fold-induction), luciferase activation (Primate GnRH-2 receptor [7]) [fold-induction]	Ratio^a (EC50 relative to the EC50 of GnRH-2), luciferase activation (Primate GnRH-2 receptor [7])	other results
B1	-7.32 log IC50 (concentration unit not printed)	-8.52 log EC50 (concentration unit not printed)	-8.42 log EC50 (concentration unit not printed)	-5.59 log EC50 (concentration unit not printed)			inositol phosphate production, concentration needed compared with GnRH-2 (bfGnRHR-2 [5]): ~1000 fold higher concentration than GnRH-2
Ac-[d2Nal][dPhe(4-Cl)][d3Pal]SY[dCit]LRP[dA]-NH2 [Cetrorelix]							Log IC50, inhibition of GnRH-2-induced inositol phosphate production in GH3 cells expressing the receptor (bfGnRHR-2 [6]): -6.43 log IC50 (concentration unit not printed)
B2					11.7	0.66 ratio to GnRH-2	
B3					12.8	6.61 ratio to GnRH-2	
B4					9.04	2.51 ratio to GnRH-2	
B5	-8.63 log IC50 (concentration unit not printed)	-9.41 log EC50 (concentration unit not printed)	-9.51 log EC50 (concentration unit not printed)	-8.98 log EC50 (concentration unit not printed)	11.7	1 ratio to GnRH-2	Log EC50, inositol phosphate production in GH3 cells expressing the receptor (rat GnRHR [8]): -8.06 log EC50 (concentration unit not printed); inositol phosphate production, sensitivity compared with GnRH-1 (rat GnRHR [9]): 10 fold lower sensitivity than GnRH-1; log IC50 (rat GnRHR [10]): -6.08 log IC50 (concentration unit not printed)
B6	-8.1 log IC50 (concentration unit not printed)	-9.4 log EC50 (concentration unit not printed)	-9.22 log EC50 (concentration unit not printed)	-9.21 log EC50 (concentration unit not printed)	11.2	1.2 ratio to GnRH-2	Log EC50, inositol phosphate production in GH3 cells expressing the receptor (rat GnRHR [8]): -7.92 log EC50 (concentration unit not printed); log IC50 (rat GnRHR [10]): -7.01 log IC50 (concentration unit not printed)
B7	-9.83 log IC50 (concentration unit not printed)	-9.91 log EC50 (concentration unit not printed)	-9.89 log EC50 (concentration unit not printed)	-9.91 log EC50 (concentration unit not printed)	11.8	0.38 ratio to GnRH-2	Log EC50, inositol phosphate production in GH3 cells expressing the receptor (rat GnRHR [8]): -8.49 log EC50 (concentration unit not printed); inositol phosphate production, concentration needed compared with GnRH-2 (bfGnRHR-1 [11]): ~8 fold lower concentration than GnRH-2; inositol phosphate production, sensitivity compared with GnRH-1 (rat GnRHR [9]): 10 fold lower sensitivity than GnRH-1; log IC50 (rat GnRHR [10]): -6.85 log IC50 (concentration unit not printed)
B8					6.22	11 ratio to GnRH-2	
B9							Log IC50, inhibition of GnRH-2-induced c-fos-luc luciferase activity (Primate GnRH-2 receptor [12]): -6.19 log IC50 (concentration unit not printed)
Ac-[d2Nal][dPhe(4-Cl)][d3Pal]SY[dCit]WYP[dA]-NH2 [Trptorelix-1]							inhibition of GnRH-2-induced IP production, sensitivity compared with Cetrorelix (bfGnRHR-2 [5]): 100 fold more sensitive than Cetrorelix; Log IC50, inhibition of GnRH-2-induced inositol phosphate production in GH3 cells expressing the receptor (bfGnRHR-2 [6]): -8.1 log IC50 (concentration unit not printed); Log IC50, inhibition of GnRH-2-induced c-fos-luc luciferase activity (Primate GnRH-2 receptor [12]): -5.74 log IC50 (concentration unit not printed)
B10					7.35	3.01 ratio to GnRH-2	
